In the supplement of paper PMC12042874:
± gives the uncertainty stated by the source.

Assay: amyloid nucleation score (Sup35N fusion, yeast selection) (log enrichment); library NNK2; higher = more nucleation; inactive = no reads after selection
In short: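 Yeast lacking psi expressed peptides of 20 random codons fused to Sup35N, received 100 μM copper sulfate for 24 hours, and were then grown for 7 days at 30°C on medium lacking adenine and uracil. Illumina sequencing of input and output plasmid inserts provided the reads. Nucleation scores are DiMSum log enrichments of output over input, centred on the mode of non-aggregating sequences. Any sequence with under 100 input reads was excluded.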

Q: With TIGANPRVLDG as the substance, how does the amyloid nucleation score read?
A: The amyloid nucleation score was 0.316 ± 0.39.

Q: With DRACPYLWVPLRLRGLDTII as the substance, how does the amyloid nucleation score read?
A: The amyloid nucleation score was -1.32 ± 0.44.

Q: For FDYVMFSDIVWSYTKNDALM, which amyloid nucleation score is on record?
A: The amyloid nucleation score was -0.111 ± 0.63.

Q: Which amyloid nucleation score does the source give for SLLLMDYFLYYYLSVEKRQR here?
A: The amyloid nucleation score was “inactive”.

Q: Which amyloid nucleation score does the source give for VAWVYSVLKCVSGLVG here?
A: The amyloid nucleation score was -0.013 ± 0.4.

Q: For LFVALVGDLFCCWVCGSYGV, which amyloid nucleation score is on record?
A: The amyloid nucleation score was -1.43 ± 0.78.

Q: Which amyloid nucleation score does the source give for KDLPTSYIYMFDY here?
A: The amyloid nucleation score was -1.2 ± 0.78.

Q: For QKACWNPGQRLLVTDLHYQP, which amyloid nucleation score is on record?
A: Its amyloid nucleation score is 0.27 ± 0.64.

Q: For CLDPLAMSN, which amyloid nucleation score is on record?
A: Its amyloid nucleation score is “inactive”.

Q: For RYNDAFSVCRMDEITAWIWC, which amyloid nucleation score is on record?
A: The amyloid nucleation score was 2.67 ± 0.085.

Q: Which amyloid nucleation score does the source give for LAYCGYIHDLFGGILIKLDG here?
A: The amyloid nucleation score was -0.081 ± 1.1.

Q: Which amyloid nucleation score does the source give for YILRSANLM here?
A: Its amyloid nucleation score is -0.406 ± 0.3.

Q: Which amyloid nucleation score does the source give for LLIVNCMLANYSFWIQSSGS here?
A: Its amyloid nucleation score is 5.968 ± 0.029.

Q: With LQYAKSHRVSWDGMAANSPG as the substance, how does the amyloid nucleation score read?
A: Its amyloid nucleation score is 0.067 ± 0.45.

Q: With GLYIEKARQRYPRSQHLIAM as the substance, how does the amyloid nucleation score read?
A: Its amyloid nucleation score is -0.419 ± 0.49.

Q: For VDFRFMMHPSEEWMSNHLPR, which amyloid nucleation score is on record?
A: The amyloid nucleation score was 1.14 ± 0.24.

Q: With TGDMQVAVYCVILGGFSMGM as the substance, how does the amyloid nucleation score read?
A: The amyloid nucleation score was 4.44 ± 0.055.

Q: For NERQEIIPDSSPETHVSNIT, which amyloid nucleation score is on record?
A: The amyloid nucleation score was 1.12 ± 0.12.

Q: For CCYVHWILGAGDREGRLWRQ, which amyloid nucleation score is on record?
A: The amyloid nucleation score was 3.86 ± 0.13.

Q: With VCNRPI as the substance, how does the amyloid nucleation score read?
A: The amyloid nucleation score was -0.78 ± 0.26.

Q: For GTILPCNWNNLLYWVVGENA, which amyloid nucleation score is on record?
A: Its amyloid nucleation score is 0.438 ± 0.25.

Q: With SNVYYRVC as the substance, how does the amyloid nucleation score read?
A: Its amyloid nucleation score is 4.72 ± 0.084.

Q: Which amyloid nucleation score does the source give for IFRTFFIYKEFCGFLWCVGG here?
A: Its amyloid nucleation score is 1.02 ± 0.32.

Q: For FTFIGGYVSYYRCIPIGILP, which amyloid nucleation score is on record?
A: The amyloid nucleation score was 0.33 ± 0.74.

Q: With QDGFRMYVLFDYNQCREFCS as the substance, how does the amyloid nucleation score read?
A: The amyloid nucleation score was 1.23 ± 0.26.

Q: Which amyloid nucleation score does the source give for RLIYCVVGRCCNCSFYFTRM here?
A: The amyloid nucleation score was 2.75 ± 0.09.

Q: Which amyloid nucleation score does the source give for TFTSRGMMSLGFGRR here?
A: Its amyloid nucleation score is 6.01 ± 0.08.

Q: With YLDTHWIYY as the substance, how does the amyloid nucleation score read?
A: The amyloid nucleation score was 0.056 ± 0.63.

Q: With DRLGSRERDG as the substance, how does the amyloid nucleation score read?
A: The amyloid nucleation score was 0.74 ± 0.2.

Q: For SYNLNSNRVESIDFSSIIIV, which amyloid nucleation score is on record?
A: The amyloid nucleation score was -0.459 ± 1.1.

Q: For CHTTMPGIVCKLGTYARGEG, which amyloid nucleation score is on record?
A: Its amyloid nucleation score is 6.638 ± 0.066.

Q: Which amyloid nucleation score does the source give for RLNALLVWFVRVSMALVRES here?
A: Its amyloid nucleation score is -0.661 ± 1.1.

Q: Which amyloid nucleation score does the source give for EVEWAFTYHISL here?
A: Its amyloid nucleation score is -0.095 ± 0.39.

Q: For CYLGVKCVLGWQSWRVVYSN, which amyloid nucleation score is on record?
A: The amyloid nucleation score was “inactive”.

Q: For TTRSNEKIVFHGWTSVINRH, which amyloid nucleation score is on record?
A: The amyloid nucleation score was -0.696 ± 0.76.

Q: For CCFRKWSSTAHRRFPCWREL, which amyloid nucleation score is on record?
A: The amyloid nucleation score was 0.255 ± 0.54.

Q: With NCFNLEKGQMCPDWNGSSYT as the substance, how does the amyloid nucleation score read?
A: Its amyloid nucleation score is -0.667 ± 0.39.

Q: With RYLVVKEQDFPDEYAPY as the substance, how does the amyloid nucleation score read?
A: Its amyloid nucleation score is -0.271 ± 0.55.

Q: Which amyloid nucleation score does the source give for IMYVMGVVFNTMWVSA here?
A: The amyloid nucleation score was -1.11 ± 0.62.

Q: Which amyloid nucleation score does the source give for SRFRGKLCFGWHKYAFGEVF here?
A: Its amyloid nucleation score is -0.711 ± 0.79.

Q: With SIFNFKATFGNSSRDVMSDD as the substance, how does the amyloid nucleation score read?
A: Its amyloid nucleation score is 3.28 ± 0.057.

Q: With GLCKFKQVCTNSVGNYVGYF as the substance, how does the amyloid nucleation score read?
A: The amyloid nucleation score was -2.18 ± 0.62.

Q: Which amyloid nucleation score does the source give for LESVWHILGGFGIMVFYITK here?
A: The amyloid nucleation score was “inactive”.

Q: Which amyloid nucleation score does the source give for VSFTARSRHVDGGLSS here?
A: Its amyloid nucleation score is 1.04 ± 0.32.

Q: Which amyloid nucleation score does the source give for GWFKESVFLGFWVRISNSQV here?
A: Its amyloid nucleation score is -1.75 ± 1.1.

Q: For NYQGI, which amyloid nucleation score is on record?
A: Its amyloid nucleation score is -0.874 ± 0.56.

Q: With TPNQGNPSGYFFDNSFMKPF as the substance, how does the amyloid nucleation score read?
A: The amyloid nucleation score was “inactive”.

Q: For AMQLCSFTPFSTYNFLSYDS, which amyloid nucleation score is on record?
A: The amyloid nucleation score was -0.685 ± 0.37.

Q: For DMLEKKE, which amyloid nucleation score is on record?
A: The amyloid nucleation score was 5.921 ± 0.059.

Q: For IPTFKDLGFISESIMYNG, which amyloid nucleation score is on record?
A: Its amyloid nucleation score is -1.38 ± 0.42.

Q: Which amyloid nucleation score does the source give for MMVRN here?
A: The amyloid nucleation score was 1.22 ± 0.57.

Q: Which amyloid nucleation score does the source give for SSLNM here?
A: The amyloid nucleation score was -0.595 ± 0.61.

Q: For GELRIYRLGHCVCVSMSLPA, which amyloid nucleation score is on record?
A: The amyloid nucleation score was 1.27 ± 0.36.

Q: For FRIGFVFCVSYCRECRN, which amyloid nucleation score is on record?
A: Its amyloid nucleation score is 0.065 ± 1.1.

Q: Which amyloid nucleation score does the source give for CPCSRCLVDNKVRL here?
A: The amyloid nucleation score was -0.41 ± 0.45.

Q: For CFKFRYRLGGW, which amyloid nucleation score is on record?
A: Its amyloid nucleation score is 4.93 ± 0.05.

Q: For SAFYSDAL, which amyloid nucleation score is on record?
A: The amyloid nucleation score was 1.08 ± 0.54.

Q: Which amyloid nucleation score does the source give for IRYTFSKLRSDCFMRCARSW here?
A: The amyloid nucleation score was 0.898 ± 0.23.

Q: With GYLVRM as the substance, how does the amyloid nucleation score read?
A: Its amyloid nucleation score is -0.186 ± 0.3.

Q: Which amyloid nucleation score does the source give for YVLIVRYILGSSLRELAYGR here?
A: The amyloid nucleation score was -0.38 ± 0.3.

Q: For SVKHGMLCYTLLDNMRCTVE, which amyloid nucleation score is on record?
A: The amyloid nucleation score was -0.087 ± 0.26.

Q: For FHLMFCGSL, which amyloid nucleation score is on record?
A: Its amyloid nucleation score is -0.818 ± 0.49.

Q: For NGSDRWQASHRTNWGMVGFG, which amyloid nucleation score is on record?
A: Its amyloid nucleation score is 0.597 ± 0.44.

Q: For GDFSFCTHLLSYNLRGWPVV, which amyloid nucleation score is on record?
A: The amyloid nucleation score was 0.192 ± 0.74.

Q: For LQVRLDTRR, which amyloid nucleation score is on record?
A: Its amyloid nucleation score is 0.043 ± 0.5.

Q: Which amyloid nucleation score does the source give for RGRHGASMELESVDKRTVSR here?
A: Its amyloid nucleation score is 0.656 ± 0.34.

Q: Which amyloid nucleation score does the source give for AFVLRVNYNLNTRGYVSLFK here?
A: Its amyloid nucleation score is 2.14 ± 0.14.

Q: For LRYLGWLACDYKTVGRSVTR, which amyloid nucleation score is on record?
A: Its amyloid nucleation score is 0.978 ± 0.74.

Q: Which amyloid nucleation score does the source give for MDNHVLKFYRNDYKE here?
A: Its amyloid nucleation score is 0.191 ± 0.65.

Q: With YLIPFMYAKCLSWVILRK as the substance, how does the amyloid nucleation score read?
A: Its amyloid nucleation score is 0.029 ± 0.23.

Q: Which amyloid nucleation score does the source give for PIRPVLWVQFVKTQYGPMIP here?
A: The amyloid nucleation score was 4.68 ± 0.098.

Q: For TIVWLGRPLYTGFKNTKRGH, which amyloid nucleation score is on record?
A: The amyloid nucleation score was “inactive”.

Q: For EFWPKELIRSDDSASFNGMS, which amyloid nucleation score is on record?
A: Its amyloid nucleation score is 0.007 ± 1.1.

Q: With FKDTWQSPGAVERKGMRTSV as the substance, how does the amyloid nucleation score read?
A: Its amyloid nucleation score is 0.365 ± 0.22.

Q: Which amyloid nucleation score does the source give for FSMQSMSKGYVLRPLGMA here?
A: Its amyloid nucleation score is -0.098 ± 0.3.

Q: With AGVCCSVSNILWKCTSSSNG as the substance, how does the amyloid nucleation score read?
A: The amyloid nucleation score was 9.932 ± 0.023.

Q: With SMNVDTPCSGRWV as the substance, how does the amyloid nucleation score read?
A: The amyloid nucleation score was -0.249 ± 1.1.

Q: For IRSSWIANVLSANSRGRNNQ, which amyloid nucleation score is on record?
A: Its amyloid nucleation score is 0.382 ± 0.33.

Q: Which amyloid nucleation score does the source give for CNRVHYFFCFSCLWMFVFID here?
A: Its amyloid nucleation score is -2.07 ± 1.1.

Q: With NTFFQYDPRHRGHTAGWCGE as the substance, how does the amyloid nucleation score read?
A: Its amyloid nucleation score is 0.07 ± 0.54.

Q: For LLASFGFRKVKIYTLPCILA, which amyloid nucleation score is on record?
A: Its amyloid nucleation score is -1.15 ± 0.76.

Q: With VNSNEVFIYPFTNLNFMML as the substance, how does the amyloid nucleation score read?
A: The amyloid nucleation score was 5.17 ± 0.087.

Q: With KNDLPRKKVL as the substance, how does the amyloid nucleation score read?
A: Its amyloid nucleation score is 0.128 ± 0.4.

Q: Which amyloid nucleation score does the source give for ASYLCFPNNVVLSLHNHVFS here?
A: The amyloid nucleation score was 4.834 ± 0.048.

Q: For TYSTLFDFRMI, which amyloid nucleation score is on record?
A: The amyloid nucleation score was 0.099 ± 0.31.

Q: With ANFQIFDLLME as the substance, how does the amyloid nucleation score read?
A: Its amyloid nucleation score is -0.061 ± 0.43.
